Data: patent publication US20250257099A1 (priority 2022, published 2025)

How the values were obtained:
[1] = molecular target: SARS-CoV-2 spike (S) glycoprotein (SARS-CoV-2) (UniProt P0DTC2); assay: cell-based or functional assay
[2] = molecular target: MERS-CoV spike (S) protein (MERS-CoV) (UniProt K9N5Q8); assay: cell-based or functional assay

“EK1 lipopeptide (EK1C4), cholesterol-conjugated” showed an IC50, plaque-neutralization test, SARS-CoV-2 infection of Vero E6 cells [1] of 80 nM and an IC50, plaque-neutralization test, MERS-CoV infection of Vero E6 cells [2] of 8 nM.
